One block for each binder: values may come before it. Numbered stars: 1 amine (or outer) side, 2 acyl side, 3 side chain; on linkers, the order of the positions; unused ones are H or OH. Side chains are listed from the residue outwards. Ends that are not written are not given here. * marks the point of attachment. C20 diacid = O=C(O)CCCCCCCCCCCCCCCCCCC(=O)*; C18 diacid = O=C(O)CCCCCCCCCCCCCCCCC(=O)*; C16 diacid = O=C(O)CCCCCCCCCCCCCCC(=O)*; γGlu = O=C(O)[C@H](CCC(=O)[*:2])N[*:1]; C14 diacid = O=C(O)CCCCCCCCCCCCC(=O)*; AEEA = NCCOCCOCC(=O)O
Assays:
[1] = molecular target: T1, human calcitonin receptor on BHK570/CRE-luc cells (human, UniProt P30988 25-474); experiment: cell-based or functional assay
T1 sequence (looked up): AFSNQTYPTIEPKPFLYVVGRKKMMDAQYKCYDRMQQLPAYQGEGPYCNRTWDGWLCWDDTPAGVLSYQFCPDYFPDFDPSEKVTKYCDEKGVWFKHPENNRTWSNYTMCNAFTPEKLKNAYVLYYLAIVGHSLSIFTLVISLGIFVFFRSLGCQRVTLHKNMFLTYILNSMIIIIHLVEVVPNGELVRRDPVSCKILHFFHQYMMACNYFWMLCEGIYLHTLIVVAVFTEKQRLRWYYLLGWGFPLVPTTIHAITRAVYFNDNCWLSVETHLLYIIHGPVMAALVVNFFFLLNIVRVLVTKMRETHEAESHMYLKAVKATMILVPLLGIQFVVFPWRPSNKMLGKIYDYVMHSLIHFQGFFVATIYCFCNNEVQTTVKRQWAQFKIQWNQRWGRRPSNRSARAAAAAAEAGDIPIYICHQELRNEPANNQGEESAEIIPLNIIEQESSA

[2] = molecular target: T2, human amylin 3(a) receptor (human calcitonin receptor co-expressed with RAMP-3) on BHK570/CRE-luc cells (human, UniProt P30988 25-474; O60896 24-148); experiment: cell-based or functional assay
T2 sequence (looked up) 1: T1 sequence (looked up)
T2 sequence (looked up) 2: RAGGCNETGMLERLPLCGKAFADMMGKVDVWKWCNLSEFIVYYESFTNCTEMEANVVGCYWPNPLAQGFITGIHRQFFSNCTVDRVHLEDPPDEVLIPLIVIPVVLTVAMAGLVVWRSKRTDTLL

hCTR funct. EC50 (pM), tested with HSA [1]: 74 pM
hAmylin-R funct. EC50 (pM), tested with HSA [2]: 143 pM
B1: [N-terminal(C20 diacid-gGlu), 23Y, 30S, 31G]mimylin (peptide)
peptide: {C20 diacid-γGlu}-EASELSTAALGRLSAELHELATYPRTETGSGSP-NH2
SMILES: CC(C)C[C@H](NC(=O)[C@H](C)NC(=O)[C@H](C)NC(=O)[C@@H](NC(=O)[C@H](CO)NC(=O)[C@H](CC(C)C)NC(=O)[C@H](CCC(=O)O)NC(=O)[C@H](CO)NC(=O)[C@H](C)NC(=O)[C@H](CCC(=O)O)NC(=O)CC[C@H](NC(=O)CCCCCCCCCCCCCCCCCCC(=O)O)C(=O)O)[C@@H](C)O)C(=O)NCC(=O)N[C@@H](CCCNC(=N)N)C(=O)N[C@@H](CC(C)C)C(=O)N[C@@H](CO)C(=O)N[C@@H](C)C(=O)N[C@@H](CCC(=O)O)C(=O)N[C@@H](CC(C)C)C(=O)N[C@@H](Cc1c[nH]cn1)C(=O)N[C@@H](CCC(=O)O)C(=O)N[C@@H](CC(C)C)C(=O)N[C@@H](C)C(=O)N[C@H](C(=O)N[C@@H](Cc1ccc(O)cc1)C(=O)N1CCC[C@H]1C(=O)N[C@@H](CCCNC(=N)N)C(=O)N[C@H](C(=O)N[C@@H](CCC(=O)O)C(=O)N[C@H](C(=O)NCC(=O)N[C@@H](CO)C(=O)NCC(=O)N[C@@H](CO)C(=O)N1CCC[C@H]1C(N)=O)[C@@H](C)O)[C@@H](C)O)[C@@H](C)O

hCTR funct. EC50 (pM), tested with HSA [1]: 30 pM
hAmylin-R funct. EC50 (pM), tested with HSA [2]: 73 pM
Binder: {C20 diacid-γGlu-AEEA}-ASELSTAALGRLSAELHELATLPRTETGSGSP-NH2 [[N-terminal(C20 diacid-gGlu-OEG), des1, 30S, 31G]mimylin]

hCTR funct. EC50 (pM), tested with HSA [1]: 4 pM
hAmylin-R funct. EC50 (pM), tested with HSA [2]: 4 pM
Binder: {C14 diacid-γGlu}-ASELSTAALGRLSAELHELATLPRTETGSGSP-NH2 [[N-terminal(C14 diacid-gGlu), des1, 30S, 31G]mimylin]

hCTR funct. EC50 (pM), tested with HSA [1]: 35 pM
hAmylin-R funct. EC50 (pM), tested with HSA [2]: 67 pM
Binder: {C20 diacid-γGlu-AEEA-AEEA}-ASELSTAALGRLSAELHELATLPRTETGSGSP-NH2 [[N-terminal(C20 diacid-gGlu-2xOEG), des1, 30S, 31G]mimylin]

hCTR funct. EC50 (pM), tested with HSA [1]: 25 pM
hAmylin-R funct. EC50 (pM), tested with HSA [2]: 68 pM
Binder: {C20 diacid-γGlu-AEEA-AEEA-AEEA}-ASELSTAALGRLSAELHELATLPRTETGSGSP-NH2 [[N-terminal(C20 diacid-gGlu-3xOEG), des1, 30S, 31G]mimylin]

hCTR funct. EC50 (pM), tested with HSA [1]: 11 pM
hAmylin-R funct. EC50 (pM), tested with HSA [2]: 26 pM
Binder: {C18 diacid-γGlu}-ASELSTAALGRLSAELHELATLPRTETGSGSP-NH2 [[N-terminal(C18 diacid-gGlu), des1, 30S, 31G]mimylin]

hCTR funct. EC50 (pM), tested with HSA [1]: 2 pM
hAmylin-R funct. EC50 (pM), tested with HSA [2]: 4 pM
Binder: {C16 diacid-γGlu}-ASELSTAALGRLSAELHELATLPRTETGSGSP-NH2 [[N-terminal(C16 diacid-gGlu), des1, 30S, 31G]mimylin]

hCTR funct. EC50 (pM), tested with HSA [1]: 27 pM
hAmylin-R funct. EC50 (pM), tested with HSA [2]: 66 pM
Binder: {C20 diacid-γGlu-AEEA-AEEA-AEEA-AEEA-AEEA}-ASELSTAALGRLSAELHELATLPRTETGSGSP-NH2 [[N-terminal(C20 diacid-gGlu-5xOEG), des1, 30S, 31G]mimylin]

hCTR funct. EC50 (pM), tested with HSA [1]: 8 pM
hAmylin-R funct. EC50 (pM), tested with HSA [2]: 9 pM
Binder: {C18 diacid}-ASELSTAALGRLSAELHELATLPRTETGSGSP-NH2 [[N-terminal(C18 diacid), des1, 30S, 31G]mimylin]

hCTR funct. EC50 (pM), tested with HSA [1]: 29 pM
hAmylin-R funct. EC50 (pM), tested with HSA [2]: 51 pM
Binder: {C20 diacid-γGlu}-ASELSTAALGRLSAELHELATLPRTETGSGSP-NH2 [[N-terminal(C20 diacid-gGlu), des1, 30S, 31G]mimylin]

hCTR funct. EC50 (pM), tested with HSA [1]: 3 pM
hAmylin-R funct. EC50 (pM), tested with HSA [2]: 4 pM
Binder: {C16 diacid}-ASELSTAALGRLSAELHELATLPRTETGSGSP-NH2 [[N-terminal(C16 diacid), des1, 30S, 31G]mimylin]

hCTR funct. EC50 (pM), tested with HSA [1]: 25 pM
hAmylin-R funct. EC50 (pM), tested with HSA [2]: 62 pM
Binder: {C20 diacid-γGlu-AEEA-AEEA-AEEA-AEEA}-ASELSTAALGRLSAELHELATLPRTETGSGSP-NH2 [[N-terminal(C20 diacid-gGlu-4xOEG), des1, 30S, 31G]mimylin]

hCTR funct. EC50 (pM), tested with HSA [1]: 30 pM
hAmylin-R funct. EC50 (pM), tested with HSA [2]: 74 pM
B2: [des1, 4K(C20 diacid-gGlu), 30S, 31G]mimylin (peptide)
peptide: ASK([γGlu-C20 diacid])LSTAALGRLSAELHELATLPRTETGSGSP-NH2
modifications: N-terminus assumed
SMILES: CC(C)C[C@H](NC(=O)[C@H](C)NC(=O)[C@H](C)NC(=O)[C@@H](NC(=O)[C@H](CO)NC(=O)[C@H](CC(C)C)NC(=O)[C@H](CCCCNC(=O)CC[C@H](NC(=O)CCCCCCCCCCCCCCCCCCC(=O)O)C(=O)O)NC(=O)[C@H](CO)NC(=O)[C@H](C)N)[C@@H](C)O)C(=O)NCC(=O)N[C@@H](CCCNC(=N)N)C(=O)N[C@@H](CC(C)C)C(=O)N[C@@H](CO)C(=O)N[C@@H](C)C(=O)N[C@@H](CCC(=O)O)C(=O)N[C@@H](CC(C)C)C(=O)N[C@@H](Cc1c[nH]cn1)C(=O)N[C@@H](CCC(=O)O)C(=O)N[C@@H](CC(C)C)C(=O)N[C@@H](C)C(=O)N[C@H](C(=O)N[C@@H](CC(C)C)C(=O)N1CCC[C@H]1C(=O)N[C@@H](CCCNC(=N)N)C(=O)N[C@H](C(=O)N[C@@H](CCC(=O)O)C(=O)N[C@H](C(=O)NCC(=O)N[C@@H](CO)C(=O)NCC(=O)N[C@@H](CO)C(=O)N1CCC[C@H]1C(N)=O)[C@@H](C)O)[C@@H](C)O)[C@@H](C)O

hCTR funct. EC50 (pM), tested with HSA [1]: 4 pM
hAmylin-R funct. EC50 (pM), tested with HSA [2]: 6 pM
Binder: {C14 diacid}-ASELSTAALGRLSAELHELATLPRTETGSGSP-NH2 [[N-terminal(C14 diacid), des1, 30S, 31G]mimylin]

hCTR funct. EC50 (pM), tested with HSA [1]: 19 pM
hAmylin-R funct. EC50 (pM), tested with HSA [2]: 39 pM
B3: [N-terminal(C18 diacid-gGlu), des1, 30S, 31P]mimylin (peptide)
peptide: {C18 diacid-γGlu}-ASELSTAALGRLSAELHELATLPRTETGSPSP-NH2
SMILES: CC(C)C[C@H](NC(=O)[C@H](C)NC(=O)[C@H](C)NC(=O)[C@@H](NC(=O)[C@H](CO)NC(=O)[C@H](CC(C)C)NC(=O)[C@H](CCC(=O)O)NC(=O)[C@H](CO)NC(=O)[C@H](C)NC(=O)CC[C@H](NC(=O)CCCCCCCCCCCCCCCCC(=O)O)C(=O)O)[C@@H](C)O)C(=O)NCC(=O)N[C@@H](CCCNC(=N)N)C(=O)N[C@@H](CC(C)C)C(=O)N[C@@H](CO)C(=O)N[C@@H](C)C(=O)N[C@@H](CCC(=O)O)C(=O)N[C@@H](CC(C)C)C(=O)N[C@@H](Cc1c[nH]cn1)C(=O)N[C@@H](CCC(=O)O)C(=O)N[C@@H](CC(C)C)C(=O)N[C@@H](C)C(=O)N[C@H](C(=O)N[C@@H](CC(C)C)C(=O)N1CCC[C@H]1C(=O)N[C@@H](CCCNC(=N)N)C(=O)N[C@H](C(=O)N[C@@H](CCC(=O)O)C(=O)N[C@H](C(=O)NCC(=O)N[C@@H](CO)C(=O)N1CCC[C@H]1C(=O)N[C@@H](CO)C(=O)N1CCC[C@H]1C(N)=O)[C@@H](C)O)[C@@H](C)O)[C@@H](C)O

From US20160272683A1 (Novo Nordisk, published 2016)
